Each block holds one binder with its values, some of them ahead of it.
Experiments:
[1] = target: human IL-23R, cell-expressed (human) (UniProt Q5VWK5); assay: cell-based or functional assay
[2] = target: human CXCR4 (on cells, viral lipoparticles or membrane extracts) (human) (UniProt P61073); assay: FACS, Caki-CXCR4 cells
[3] = target: human CXCR4 (on cells, viral lipoparticles or membrane extracts) (human) (UniProt P61073); assay: cell-based or functional assay
[4] = target: human CXCR4 (on cells, viral lipoparticles or membrane extracts) (human) (UniProt P61073); assay: [125I]-SDF-1 displacement, Hek-CXCR4 membrane extracts
[5] = target: human CXCR4 (on cells, viral lipoparticles or membrane extracts) (human) (UniProt P61073); assay: FACS displacement of 30 nM biotin-SDF-1, Caki-CXCR4 cells
[6] = target: human CXCR4 (on cells, viral lipoparticles or membrane extracts) (human) (UniProt P61073); assay: ELISA on coated CXCR4 viral lipoparticles (upper right panel)
[7] = target: recombinant IL-3Rα ectodomain (human) (UniProt P26951); assay: ELISA on recombinant IL-3Ra ectodomain (panel 'IL-3Ra ELISA', lower left)
Sequence of recombinant IL-3Rα ectodomain (human) (P26951 19-305): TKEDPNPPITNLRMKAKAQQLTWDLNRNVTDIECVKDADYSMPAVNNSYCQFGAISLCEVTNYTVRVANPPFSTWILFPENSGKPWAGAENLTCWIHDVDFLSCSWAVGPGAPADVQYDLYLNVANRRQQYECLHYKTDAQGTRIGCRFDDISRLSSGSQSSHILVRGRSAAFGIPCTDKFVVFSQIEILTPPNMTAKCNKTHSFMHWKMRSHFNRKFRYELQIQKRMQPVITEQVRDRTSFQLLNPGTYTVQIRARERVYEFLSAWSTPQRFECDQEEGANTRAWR

Sequence of human CXCR4 (on cells, viral lipoparticles or membrane extracts) (human) (P61073 whole entry, the tested form may be a part): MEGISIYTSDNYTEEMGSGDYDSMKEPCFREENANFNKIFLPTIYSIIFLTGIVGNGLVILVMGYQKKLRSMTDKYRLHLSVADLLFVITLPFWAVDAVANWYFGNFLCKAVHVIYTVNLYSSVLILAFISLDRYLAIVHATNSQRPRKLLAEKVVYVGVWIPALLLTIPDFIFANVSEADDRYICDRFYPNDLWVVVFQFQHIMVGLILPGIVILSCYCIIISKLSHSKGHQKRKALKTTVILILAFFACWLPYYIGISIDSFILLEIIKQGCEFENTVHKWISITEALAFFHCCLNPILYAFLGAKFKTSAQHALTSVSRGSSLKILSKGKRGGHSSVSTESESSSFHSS
Sequence of human IL-23R, cell-expressed (human) (Q5VWK5 24-629): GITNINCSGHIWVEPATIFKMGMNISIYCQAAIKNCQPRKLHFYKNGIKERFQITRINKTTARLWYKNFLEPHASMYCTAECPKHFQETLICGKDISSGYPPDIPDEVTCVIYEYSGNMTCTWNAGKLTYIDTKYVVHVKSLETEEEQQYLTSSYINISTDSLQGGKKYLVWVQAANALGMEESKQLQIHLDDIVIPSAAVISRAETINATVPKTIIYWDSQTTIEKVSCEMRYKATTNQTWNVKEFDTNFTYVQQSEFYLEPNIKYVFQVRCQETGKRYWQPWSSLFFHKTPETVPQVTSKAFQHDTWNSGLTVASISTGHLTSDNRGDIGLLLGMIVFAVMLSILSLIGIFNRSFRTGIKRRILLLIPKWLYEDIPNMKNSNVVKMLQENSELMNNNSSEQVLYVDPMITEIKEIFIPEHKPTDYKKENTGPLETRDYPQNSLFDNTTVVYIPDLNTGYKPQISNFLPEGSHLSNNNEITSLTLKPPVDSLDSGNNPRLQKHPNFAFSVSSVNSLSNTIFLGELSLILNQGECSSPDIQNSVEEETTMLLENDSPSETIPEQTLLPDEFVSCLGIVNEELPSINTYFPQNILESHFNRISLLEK

IC50, IL-17 release, PBMC D840 [1]: 58.9 nM
fold ctrl, IL-17 release [1]: 1.7 fold
B1: IL23R#19-35GS-CD4#8 (bispecific antibody)
chain: EVQLVESGGGLVQPGGSLTLSCVASGRTFSTDVMGWFRQAPGKEREFVAAHRTSGISTVYAASVKGRFTISRDNAKNTVYLGMKSLKPEDTAVYVCAAGSDASGGYDYWGQGTLVTVSSGGGGSGGGGSGGGGSGGGGSGGGGSGGGGSGGGGSEVQLVESGGGSVQPGGSLTLSCGTSGRTFNVMGWFRQAPGKEREFVAAVRWSSTGIYYTQYADSVKSRFTISRDNAKNTVYLEMNSLKPEDTAVYYCAADTYNSNPARWDGYDFRGQGTLVTVSS

EC50 [2]: 3.4 nM
IC50, SDF-1 chemotaxis, Jurkat [3]: 7.6 nM
Ki [4]: 5.4 nM
IC50 [5]: 2.1 nM
B2: 238D4 (VHH, from a related filing)
VHH: EVQLMESGGGLVQAGGSLRLSCAASGRTFNNYAMGWFRRAPGKEREFVAAITRSGVRSGVSAIYGDSVKDRFTISRDNAKNTLYLQMNSLKPEDTAVYTCAASAIGSGALRRFEYDYSGQGTQVTVSS

Fold inc. vs CXCR4#1, Jurkat E6-1 [3]: 0.87 fold
Fold inc. vs CXCR4#1, MOLM-13 [3]: 2.39 fold
IC50, CXCL-12 chemotaxis, Jurkat E6-1 [3]: 12 nM
IC50, CXCL-12 chemotaxis, MOLM-13 [3]: 3.6 nM
EC50 (read off the curve) [6]: 7 nM
EC50 (read off the curve) [7]: 1 nM
B3: 14D09-35GS-55A01 (bispecific antibody)
chain: EVQLVESGGGLVQAGGSLRLSCVASGISSSKRNMGWYRQAPGKQRESVATISSGGNKDYTDAVKDRFTISRDTTKNTVYLQMNSLKPEDTAVYYCKIEAGTGWATRRGYTYWGQGTLVTVSSGGGGSGGGGSGGGGSGGGGSGGGGSGGGGSGGGGSEVQLVESGGGSVQAGGSLRLSCTTSGRALNMYVMGWFRQAPGNEREFVAATSSSGGSTSYPDSVKGRFTISRDNAKNTVYLQMNSLKPEDTAAYRCAASPYVSTPTMNILEEYRYWGQGTLVTVSS

Reference: US20160251440A1
